Data: doi:10.1101/403360

Assays:
[1] = biological target: wild type GluN2B C-terminus peptide (…); test: SPR
[2] = biological target: wild type GluN2A C-terminus peptide (…); test: SPR

Substance “isolated FRMPD2 PDZ2 domain (from UniProt A0A140LI67 934-1027) (domain or fragment)” has a Kd [1] of 250 µM and a Kd [2] of 0.31 µM.
